# Measurements as given in the supplement of paper PMC9112550, “Optimization of the antimicrobial peptide Bac7 by deep mutational scanning” (BMC Biology, 2022).
# Test system: Escherichia coli TOP10
# Experiment: shrunken log2 fold change of peptide-encoding DNA abundance (4.5 h post-induction vs induction); higher = less antimicrobial activity (less host growth inhibition)
# Conditions: time post-induction: 4.5 h; library: site-saturation at positions 5, 18, 19, 20
# 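Further: peptides expressed intracellularly from a pBAD plasmid library in pooled LB shake-flask culture, induced with 0.3% L-arabinose, DNA abundance read by NGS, three biological replicates, DESeq2 with apeglm shrinkage.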
row,Sequence,shrunken log2 fold change
1,RRIRHRPPRLPRPRPRPQTSPRP,-0.264
2,RRIRMRPPRLPRPRPRPIHIPRP,-0.221
3,RRIRHRPPRLPRPRPRPKMAPRP,-0.0953
4,RRIRYRPPRLPRPRPRPYNYPRP,-1.3
5,RRIRIRPPRLPRPRPRPGAYPRP,-0.33
6,RRIRKRPPRLPRPRPRPSMSPRP,0.14
7,RRIRMRPPRLPRPRPRPHSRPRP,0.211
8,RRIRPRPPRLPRPRPRPQQMPRP,-0.00373
9,RRIRHRPPRLPRPRPRPFQYPRP,-0.147
10,RRIRARPPRLPRPRPRPYYSPRP,-0.173
11,RRIRRRPPRLPRPRPRPQYKPRP,-0.401
12,RRIRNRPPRLPRPRPRPILRPRP,-0.455
13,RRIRDRPPRLPRPRPRPAAEPRP,1.25
14,RRIRERPPRLPRPRPRPQIVPRP,-0.108
15,RRIRIRPPRLPRPRPRPAVMPRP,-0.129
16,RRIRPRPPRLPRPRPRPMSEPRP,-0.327
17,RRIRPRPPRLPRPRPRPVLLPRP,0.00267
18,RRIRRRPPRLPRPRPRPLCCPRP,0.293
19,RRIRNRPPRLPRPRPRPHVYPRP,-0.229
20,RRIRGRPPRLPRPRPRPWGDPRP,0.41
21,RRIRNRPPRLPRPRPRPIAFPRP,-0.111
22,RRIRNRPPRLPRPRPRPFHQPRP,0.151
23,RRIRFRPPRLPRPRPRPWKCPRP,0.0039
24,RRIRDRPPRLPRPRPRPKRVPRP,-0.0521
25,RRIRFRPPRLPRPRPRPEPNPRP,0.256

row,Sequence,shrunken log2 fold change
1,RRIRKRPPRLPRPRPRPWSPPRP,0.0668
2,RRIRRRPPRLPRPRPRPNHGPRP,-0.0793
3,RRIRYRPPRLPRPRPRPEYWPRP,-0.692
4,RRIRGRPPRLPRPRPRPWNMPRP,-0.0271
5,RRIRPRPPRLPRPRPRPLRRPRP,0.805
6,RRIRTRPPRLPRPRPRPFGTPRP,-0.107
7,RRIRIRPPRLPRPRPRPHCVPRP,-0.533
8,RRIRWRPPRLPRPRPRPCVNPRP,0.0912
9,RRIRARPPRLPRPRPRPQWCPRP,-0.0868
10,RRIRHRPPRLPRPRPRPWVEPRP,-0.0959
11,RRIRERPPRLPRPRPRPTCMPRP,-0.0554
12,RRIRHRPPRLPRPRPRPYWPPRP,-0.306
13,RRIRGRPPRLPRPRPRPGCSPRP,0.867
14,RRIRERPPRLPRPRPRPLHGPRP,-0.212
15,RRIRSRPPRLPRPRPRPIPLPRP,-0.115
16,RRIRLRPPRLPRPRPRPCQTPRP,-0.0348
17,RRIRDRPPRLPRPRPRPPSCPRP,0.379
18,RRIRCRPPRLPRPRPRPGEYPRP,0.0239
19,RRIRDRPPRLPRPRPRPKENPRP,0.0579
20,RRIRQRPPRLPRPRPRPIDCPRP,0.0167
21,RRIRYRPPRLPRPRPRPTDKPRP,-0.347
22,RRIRARPPRLPRPRPRPCTMPRP,-0.207
23,RRIRPRPPRLPRPRPRPVWGPRP,0.0591
24,RRIRMRPPRLPRPRPRPPVGPRP,1.06
25,RRIRARPPRLPRPRPRPGHVPRP,0.0499

row,Sequence,shrunken log2 fold change
1,RRIRRRPPRLPRPRPRPTYYPRP,-0.0395
2,RRIRCRPPRLPRPRPRPPHWPRP,0.531
3,RRIRHRPPRLPRPRPRPTDQPRP,-0.00155
4,RRIRFRPPRLPRPRPRPEHTPRP,-0.213
5,RRIRFRPPRLPRPRPRPEAEPRP,0.684
6,RRIRDRPPRLPRPRPRPGPVPRP,0.545
7,RRIRRRPPRLPRPRPRPSDVPRP,-0.374
8,RRIRDRPPRLPRPRPRPPLMPRP,0.325
9,RRIRKRPPRLPRPRPRPTRFPRP,0.436
10,RRIRSRPPRLPRPRPRPPIPPRP,0.0379
11,RRIRERPPRLPRPRPRPLFAPRP,-0.0197
12,RRIRRRPPRLPRPRPRPEHDPRP,0.356
13,RRIRPRPPRLPRPRPRPWLHPRP,-0.173
14,RRIRRRPPRLPRPRPRPCPTPRP,0.288
15,RRIRDRPPRLPRPRPRPHMDPRP,0.0662
16,RRIRDRPPRLPRPRPRPYGEPRP,-0.31
17,RRIRRRPPRLPRPRPRPMMVPRP,-0.00292
18,RRIRNRPPRLPRPRPRPMSVPRP,0.0774
19,RRIRARPPRLPRPRPRPKDMPRP,0.263
20,RRIRRRPPRLPRPRPRPTILPRP,-0.0149
21,RRIRIRPPRLPRPRPRPRHGPRP,-0.136
22,RRIRTRPPRLPRPRPRPGFIPRP,-0.585
23,RRIRRRPPRLPRPRPRPDHGPRP,-0.146
24,RRIRGRPPRLPRPRPRPELQPRP,2.19
25,RRIRWRPPRLPRPRPRPAEIPRP,0.107

row,Sequence,shrunken log2 fold change
1,RRIRERPPRLPRPRPRPRYKPRP,-0.0357
2,RRIRMRPPRLPRPRPRPIVLPRP,-0.0572
3,RRIRERPPRLPRPRPRPINYPRP,-0.286
4,RRIRIRPPRLPRPRPRPWDSPRP,-0.0632
5,RRIRGRPPRLPRPRPRPSKDPRP,0.0908
6,RRIRMRPPRLPRPRPRPKQPPRP,2.34
7,RRIRSRPPRLPRPRPRPRTGPRP,0.185
8,RRIRCRPPRLPRPRPRPGPFPRP,-0.0444
9,RRIRTRPPRLPRPRPRPRWWPRP,0.533
10,RRIRRRPPRLPRPRPRPHYEPRP,-0.508
11,RRIRVRPPRLPRPRPRPFERPRP,0.0254
12,RRIRMRPPRLPRPRPRPCMIPRP,-0.0212
13,RRIRNRPPRLPRPRPRPLNCPRP,-0.415
14,RRIRCRPPRLPRPRPRPQSNPRP,-0.822
15,RRIRMRPPRLPRPRPRPVYGPRP,-0.294
16,RRIRVRPPRLPRPRPRPRAYPRP,-0.224
17,RRIRERPPRLPRPRPRPCTIPRP,-0.487
18,RRIRIRPPRLPRPRPRPCVDPRP,-0.0909
19,RRIRLRPPRLPRPRPRPDFNPRP,-0.444
20,RRIRGRPPRLPRPRPRPGQWPRP,0.356
21,RRIRHRPPRLPRPRPRPFYQPRP,-0.389
22,RRIRYRPPRLPRPRPRPFSYPRP,-0.145
23,RRIRERPPRLPRPRPRPCDHPRP,-0.0479
24,RRIRWRPPRLPRPRPRPYTKPRP,0.000534
25,RRIRWRPPRLPRPRPRPWQPPRP,-0.0542

row,Sequence,shrunken log2 fold change
1,RRIRCRPPRLPRPRPRPCWCPRP,-0.203
2,RRIRTRPPRLPRPRPRPNNRPRP,-0.754
3,RRIRNRPPRLPRPRPRPVTCPRP,-0.45
4,RRIRSRPPRLPRPRPRPNETPRP,-0.198
5,RRIRRRPPRLPRPRPRPNRVPRP,-0.0133
6,RRIRCRPPRLPRPRPRPLAQPRP,0.103
7,RRIRERPPRLPRPRPRPLCAPRP,-0.0485
8,RRIRFRPPRLPRPRPRPSKSPRP,-0.123
9,RRIRVRPPRLPRPRPRPTEKPRP,-0.0708
10,RRIRFRPPRLPRPRPRPRSIPRP,-0.256
11,RRIRARPPRLPRPRPRPFHRPRP,0.206
12,RRIRLRPPRLPRPRPRPLVMPRP,-0.0627
13,RRIRSRPPRLPRPRPRPRPIPRP,-0.0533
14,RRIRYRPPRLPRPRPRPKHTPRP,-0.567
15,RRIRYRPPRLPRPRPRPWWVPRP,-0.0131
16,RRIRCRPPRLPRPRPRPRQIPRP,0.192
17,RRIRPRPPRLPRPRPRPVDWPRP,0.656
18,RRIRRRPPRLPRPRPRPKCQPRP,0.506
19,RRIRDRPPRLPRPRPRPPEIPRP,0.487
20,RRIRARPPRLPRPRPRPITGPRP,-0.00407
21,RRIRNRPPRLPRPRPRPINFPRP,-0.27
22,RRIRYRPPRLPRPRPRPMHPPRP,-0.0223
23,RRIRKRPPRLPRPRPRPFEMPRP,0.911
24,RRIRGRPPRLPRPRPRPNEIPRP,0.559
25,RRIRARPPRLPRPRPRPTESPRP,0.659

row,Sequence,shrunken log2 fold change
1,RRIRDRPPRLPRPRPRPPPMPRP,0.519
2,RRIRWRPPRLPRPRPRPHPPPRP,0.348
3,RRIRYRPPRLPRPRPRPGGCPRP,0.0169
4,RRIRSRPPRLPRPRPRPMQLPRP,0.115
5,RRIRIRPPRLPRPRPRPMRHPRP,0.158
6,RRIRWRPPRLPRPRPRPASYPRP,0.151
7,RRIRLRPPRLPRPRPRPGKSPRP,-0.047
8,RRIRPRPPRLPRPRPRPIKTPRP,0.0751
9,RRIRGRPPRLPRPRPRPNDQPRP,0.265
10,RRIRTRPPRLPRPRPRPWMGPRP,-0.116
11,RRIRERPPRLPRPRPRPEVMPRP,0.378
12,RRIRCRPPRLPRPRPRPDELPRP,-0.044
13,RRIRQRPPRLPRPRPRPRTPPRP,0.676
14,RRIRERPPRLPRPRPRPYCKPRP,0.0936
15,RRIRYRPPRLPRPRPRPNQWPRP,0.00192
16,RRIRFRPPRLPRPRPRPAHKPRP,0.225
17,RRIRWRPPRLPRPRPRPNDKPRP,-0.291
18,RRIRTRPPRLPRPRPRPFIAPRP,-0.589
19,RRIRGRPPRLPRPRPRPIGNPRP,-0.149
20,RRIRCRPPRLPRPRPRPYHWPRP,-1.09
21,RRIRKRPPRLPRPRPRPAKGPRP,0.136
22,RRIRQRPPRLPRPRPRPGCHPRP,-0.11
23,RRIRWRPPRLPRPRPRPCYPPRP,-0.466
24,RRIRMRPPRLPRPRPRPTFCPRP,0.282
25,RRIRSRPPRLPRPRPRPHHWPRP,-0.221
